Source: patent publication US20150203577A1 (Chugai, published 2015)
Where two headings read alike, the source gives them in different places.

Assays:
[1] = biological target: T1, mouse FcγRIII extracellular domain, C-terminal His tag (mouse, UniProt P08508 31-215); test: SPR (Biacore T200)
T1 construct: Whole entry named; also called mFcγRIII; mFcgRIII
T1 chain: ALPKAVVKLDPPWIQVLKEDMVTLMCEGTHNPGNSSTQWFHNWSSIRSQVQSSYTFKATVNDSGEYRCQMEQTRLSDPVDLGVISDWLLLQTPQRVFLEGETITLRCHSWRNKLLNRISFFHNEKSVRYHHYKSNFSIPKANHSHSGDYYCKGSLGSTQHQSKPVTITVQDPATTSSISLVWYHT
Excerpt: (§1) The antibody H chain variable region used was the variable region H237 (SEQ ID NO: 1) of the H chain VH3-IgG1 of the anti-IL-6 receptor antibody Fv4-IgG1 described in WO2009/125825. The antibody L chain commonly used was the L chain MRAL-k0 (SEQ ID NO: 2) of the anti-IL-6 receptor antibody tocilizumab. […] These variants were expressed and purified by the method of Reference Example 1 and evaluated for their binding to mFcγRII and mFcγRIII by the method of Reference Example 2 using Biacore T200.
(§2) Each altered antibody was analyzed for its interaction with each Fcγ receptor prepared above using Biacore T100 (GE Healthcare Japan Corp.), Biacore T200 (GE Healthcare Japan Corp.), Biacore A100, or Biacore 4000. The running buffer used was HBS-EP+ (GE Healthcare Japan Corp.). The assay temperature was set to 25° C. The sensor chips used were chips prepared by immobilizing Protein L (ACTIGEN or BioVision) onto Series S Sensor Chip CM5 (GE Healthcare Japan Corp.) or Series S Sensor Chip CM4 (GE Healthcare Japan Corp.) by the amine coupling method.

[2] = biological target: T2, mouse FcγRII extracellular domain, C-terminal His tag (mouse, UniProt P08101 30-210); test: SPR (Biacore T200)
T2 construct: Whole entry named; also called mFcγRII; mFcgRII
T2 sequence: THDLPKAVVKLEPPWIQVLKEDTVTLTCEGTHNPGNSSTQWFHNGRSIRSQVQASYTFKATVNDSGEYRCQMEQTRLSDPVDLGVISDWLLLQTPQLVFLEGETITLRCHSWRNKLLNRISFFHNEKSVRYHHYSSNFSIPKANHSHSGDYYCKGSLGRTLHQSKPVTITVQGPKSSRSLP
Excerpt: as §1, §2

mouse FcγRII [3] = biological target: T3, mouse FcγRII (mouse, UniProt P08101 30-210); test: told of the L104-mk1 form; SPR was run on the MRAL-k0 form
T3 construct: also called mFcγRII; mFcgRII
T3 sequence: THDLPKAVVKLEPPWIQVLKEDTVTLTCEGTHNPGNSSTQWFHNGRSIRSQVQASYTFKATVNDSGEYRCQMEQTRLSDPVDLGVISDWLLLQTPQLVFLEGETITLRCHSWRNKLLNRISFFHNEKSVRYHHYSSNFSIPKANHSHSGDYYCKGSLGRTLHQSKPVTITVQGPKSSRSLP

[4] = biological target: T2, mouse FcγRII extracellular domain, …; test: SPR (Biacore T200); KD of H237-mIgG1/MRAL-k0 / KD of variant
[5] = biological target: T1, mouse FcγRIII extracellular domain, …; test: SPR (Biacore T200)
mouse FcγRII [6] = biological target: T3, mouse FcγRII; test: told of the L104-mk1 form; SPR (Table 28) was run on the MRAL-k0 form
[7] = biological target: T2, mouse FcγRII extracellular domain, …; test: SPR (Biacore T200); KD of H237-mIgG1/MRAL-k0 / KD of variant; remark: listed apart in the source

B1: H237-MB590/MRAL-k0 (antibody, mouse IgG1, kappa)
heavy: QVQLQESGPGLVKPSETLSLTCAVSGHSISHDHAWSWVRQPPGEGLEWIGFISYSGITNYNPSLQGRVTISRDNSKNTLYLQMNSLRAEDTAVYYCARSLARTTAMDYWGEGTLVTVSSAKTTPPSVYPLAPGSAAQTNSMVTLGCLVKGYFPEPVTVTWNSGSLSSGVHTFPAVLQSDLYTLSSSVTVPSSTWPSETVTCNVAHPASSTKVDKKIVPRDCGCKPCICTVPEVDSVFIFPPKPKDVLTITLTPKVTCVVVDIMKDDPEVQFSWFVDDVEVHTAQTQPREEQFNSTFRSVSELPIMHQDWLNGKEFKCRVNSAAFPAPIEKTISKTKGRPKAPQVYTIPPPKEQMAKDKVSLTCMITDFFPEDITVEWQWNGQPAENYKNTQPIMDTDGSYFVYSKLNVQKSNWEAGNTFTCSVLHEGLHNHHTEKSLSHSPGK
light: not shown
notes: copies: 2 + 2
[1]
  binding result: no binding
[2]
  binding result: no binding

B2: H237-MB367/L104-mk1 (antibody, mouse IgG1, kappa)
heavy: QVQLQESGPGLVKPSETLSLTCAVSGHSISHDHAWSWVRQPPGEGLEWIGFISYSGITNYNPSLQGRVTISRDNSKNTLYLQMNSLRAEDTAVYYCARSLARTTAMDYWGEGTLVTVSSAKTTPPSVYPLAPGSAAQTNSMVTLGCLVKGYFPEPVTVTWNSGSLSSGVHTFPAVLQSDLYTLSSSVTVPSSTWPSETVTCNVAHPASSTKVDKKIVPRDCGCKPCICEANEVEDVFIFPPKPKDVLTITLTPKVTCVVVDISKDDPEVQFSWFVDDVEVHTAQTQPREEQFNSTFRSVSELPIMHQDWLNGKEFKCRVNSAAFPAPIEKTISKTKGRPKAPQVYTIPPPKEQMAKDKVSLTCMITDFFPEDITVEWQWNGQPAENYKNTQPIMDTDGSYFVYSKLNVQKSNWEAGNTFTCSVLHEGLHNHHTEKSLSHSPGK
light: DIQMTQSPSSLSASVGDSVTITCQASTDISSHLNWYQQKPGKAPELLIYYGSHLLSGVPSRFSGSGSGTDFTFTISSLEAEDAATYYCGQGNRLPYTFGQGTKVEIERADAAPTVSIFPPSSEQLTSGGASVVCFLNNFYPKDINVKWKIDGSERQNGVLNSWTDQDSKDSTYSMSSTLTLTKDEYERHNSYTCEATHKTSTSPIVKSFNRNEC
notes: the text speaks of it for this form; copies: 2 + 2
Mouse FcγRII [3]
  binding result: binds

B3: H237-MB880/MRAL-k0 (antibody, mouse IgG1, kappa)
heavy: QVQLQESGPGLVKPSETLSLTCAVSGHSISHDHAWSWVRQPPGEGLEWIGFISYSGITNYNPSLQGRVTISRDNSKNTLYLQMNSLRAEDTAVYYCARSLARTTAMDYWGEGTLVTVSSAKTTPPSVYPLAPGSAAQTNSMVTLGCLVKGYFPEPVTVTWNSGSLSSGVHTFPAVLQSDLYTLSSSVTVPSSTWPSETVTCNVAHPASSTKVDKKIVPRDCGCKPCICEVAEEELVFIFPPKPKDVLTITLTPKVTCVVVDISKDDPEVQFSWFVDDVEVHTAQTQPREEQFNSTFRSVSELPIMHQDWLNGKEFKCRVNSAAFPAPIEKTISKTKGRPKAPQVYTIPPPKEQMAKDKVSLTCMITDFFPEDITVEWQWNGQPAENYKNTQPIMDTDGSYFVYSKLNVQKSNWEAGNTFTCSVLHEGLHNHHTEKSLSHSPGK
light: not shown
notes: copies: 2 + 2
[4]
  relative mFcγRII-binding activity (mIgG1 = 1): 0.34 fold
[5]
  binding result: no binding

B4: H237-MB492/L104-mk1 (antibody, mouse IgG1, kappa)
heavy: QVQLQESGPGLVKPSETLSLTCAVSGHSISHDHAWSWVRQPPGEGLEWIGFISYSGITNYNPSLQGRVTISRDNSKNTLYLQMNSLRAEDTAVYYCARSLARTTAMDYWGEGTLVTVSSAKTTPPSVYPLAPGSAAQTNSMVTLGCLVKGYFPEPVTVTWNSGSLSSGVHTFPAVLQSDLYTLSSSVTVPSSTWPSETVTCNVAHPASSTKVDKKIVPRDCGCKPCICEPNEVEDVFIFPPKPKDVLTITLTPKVTCVVVDISKDDPEVQFSWFVDDVEVHTAQTQPREEQFNSTFRSVSELPIMHQDWLNGKEFKCRVDSAAFPAPIEKTISKTKGRPKAPQVYTIPPPKEQMAKDKVSLTCMITDFFPEDITVEWQWNGQPAENYKNTQPIMDTDGSYFVYSKLNVQKSNWEAGNTFTCSVLHEGLHNHHTEKSLSHSPGK
light: DIQMTQSPSSLSASVGDSVTITCQASTDISSHLNWYQQKPGKAPELLIYYGSHLLSGVPSRFSGSGSGTDFTFTISSLEAEDAATYYCGQGNRLPYTFGQGTKVEIERADAAPTVSIFPPSSEQLTSGGASVVCFLNNFYPKDINVKWKIDGSERQNGVLNSWTDQDSKDSTYSMSSTLTLTKDEYERHNSYTCEATHKTSTSPIVKSFNRNEC
notes: the text gives the rounded value for this form; copies: 2 + 2
Mouse FcγRII [6]
  relative mFcγRII-binding activity (H237-mIgG1/L104-mk1 = 1): ~620 fold

B5: H237-MB477/L104-mk1 (antibody, mouse IgG1, kappa)
heavy: QVQLQESGPGLVKPSETLSLTCAVSGHSISHDHAWSWVRQPPGEGLEWIGFISYSGITNYNPSLQGRVTISRDNSKNTLYLQMNSLRAEDTAVYYCARSLARTTAMDYWGEGTLVTVSSAKTTPPSVYPLAPGSAAQTNSMVTLGCLVKGYFPEPVTVTWNSGSLSSGVHTFPAVLQSDLYTLSSSVTVPSSTWPSETVTCNVAHPASSTKVDKKIVPRDCGCKPCICEPNEVEDVFIFPPKPKDVLTITLTPKVTCVVVDIAKDDPEVQFSWFVDDVEVHTAQTQPREEQFNSTFRSVSELPIMHQDWLNGKEFKCRVNSAAFPAPIEKTISKTKGRPKAPQVYTIPPPKEQMAKDKVSLTCMITDFFPEDITVEWQWNGQPAENYKNTQPIMDTDGSYFVYSKLNVQKSNWEAGNTFTCSVLHEGLHNHHTEKSLSHSPGK
light: DIQMTQSPSSLSASVGDSVTITCQASTDISSHLNWYQQKPGKAPELLIYYGSHLLSGVPSRFSGSGSGTDFTFTISSLEAEDAATYYCGQGNRLPYTFGQGTKVEIERADAAPTVSIFPPSSEQLTSGGASVVCFLNNFYPKDINVKWKIDGSERQNGVLNSWTDQDSKDSTYSMSSTLTLTKDEYERHNSYTCEATHKTSTSPIVKSFNRNEC
notes: as for B4
Mouse FcγRII [6]
  relative mFcγRII-binding activity (H237-mIgG1/L104-mk1 = 1): ~200 fold

B6: H237-MB881/MRAL-k0 (antibody, mouse IgG1, kappa)
heavy: QVQLQESGPGLVKPSETLSLTCAVSGHSISHDHAWSWVRQPPGEGLEWIGFISYSGITNYNPSLQGRVTISRDNSKNTLYLQMNSLRAEDTAVYYCARSLARTTAMDYWGEGTLVTVSSAKTTPPSVYPLAPGSAAQTNSMVTLGCLVKGYFPEPVTVTWNSGSLSSGVHTFPAVLQSDLYTLSSSVTVPSSTWPSETVTCNVAHPASSTKVDKKIVPRDCGCKPCICEVNEEELVFIFPPKPKDVLTITLTPKVTCVVVDISKDDPEVQFSWFVDDVEVHTAQTQPREEQFNSTFRSVSELPIMHQDWLNGKEFKCRVNSAAFPAPIEKTISKTKGRPKAPQVYTIPPPKEQMAKDKVSLTCMITDFFPEDITVEWQWNGQPAENYKNTQPIMDTDGSYFVYSKLNVQKSNWEAGNTFTCSVLHEGLHNHHTEKSLSHSPGK
light: not shown
notes: copies: 2 + 2
[4]
  relative mFcγRII-binding activity (mIgG1 = 1): 0.23 fold
[5]
  binding result: no binding

B7: H237-MB879/MRAL-k0 (antibody, mouse IgG1, kappa)
heavy: QVQLQESGPGLVKPSETLSLTCAVSGHSISHDHAWSWVRQPPGEGLEWIGFISYSGITNYNPSLQGRVTISRDNSKNTLYLQMNSLRAEDTAVYYCARSLARTTAMDYWGEGTLVTVSSAKTTPPSVYPLAPGSAAQTNSMVTLGCLVKGYFPEPVTVTWNSGSLSSGVHTFPAVLQSDLYTLSSSVTVPSSTWPSETVTCNVAHPASSTKVDKKIVPRDCGCKPCICTPNEEELVFIFPPKPKDVLTITLTPKVTCVVVDISKDDPEVQFSWFVDDVEVHTAQTQPREEQFNSTFRSVSELPIMHQDWLNGKEFKCRVNSAAFPAPIEKTISKTKGRPKAPQVYTIPPPKEQMAKDKVSLTCMITDFFPEDITVEWQWNGQPAENYKNTQPIMDTDGSYFVYSKLNVQKSNWEAGNTFTCSVLHEGLHNHHTEKSLSHSPGK
light: not shown
notes: copies: 2 + 2
[4]
  relative mFcγRII-binding activity (mIgG1 = 1): 0.3 fold
[5]
  binding result: no binding

B8: H237-MB610/MRAL-k0 (antibody, mouse IgG1, kappa)
heavy: QVQLQESGPGLVKPSETLSLTCAVSGHSISHDHAWSWVRQPPGEGLEWIGFISYSGITNYNPSLQGRVTISRDNSKNTLYLQMNSLRAEDTAVYYCARSLARTTAMDYWGEGTLVTVSSAKTTPPSVYPLAPGSAAQTNSMVTLGCLVKGYFPEPVTVTWNSGSLSSGVHTFPAVLQSDLYTLSSSVTVPSSTWPSETVTCNVAHPASSTKVDKKIVPRDCGCKPCICTVPEESEVDIFPPKPKDVLTITLTPKVTCVVVDISKDDPEVQFSWFVDDVEVHTAQTQPREEQFNSTFRSVSELPIMHQDWLNGKEFKCRVNSAAFPAPIEKTISKTKGRPKAPQVYTIPPPKEQMAKDKVSLTCMITDFFPEDITVEWQWNGQPAENYKNTQPIMDTDGSYFVYSKLNVQKSNWEAGNTFTCSVLHEGLHNHHTEKSLSHSPGK
light: not shown
notes: copies: 2 + 2
[1]
  binding result: no binding
[7]
  relative mFcγRII-binding activity (mIgG1 = 1): 0.23 fold
